Experimental data from the domain aggregation screens of Martell et al. (2025).

Experiment: soluble fraction after stress (log2 fold change); higher = more stays soluble; pooled small domains, quantitative proteomics
Conditions: stress: pH 4
Summary of the method: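 With high-throughput quantitative proteomics, pooled custom libraries of small protein domains were measured after pH 4 stress. Each domain's soluble amount after the stress gives a fold change taken as aggregation propensity. Higher log2 values mean more of the domain stayed soluble.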

Sequence	soluble fraction (log2)
HMSRLGINTTIEDIKMVGKIIMPLLKQGQSVYQILASHPEIPYSEKTLYSYIEDNIFKDAGIDISVFDL	-0.491
HMPEAITLRDLKTYSKQAASGYLDDHQLVLVEKEAHSEDVPEGQVIKQKPGAGASVKPGDKVEVTFSLGPE	0.22
HMSMANKKDFILDTAQKLFMEQGFDQTSISQILEATQIARGTLYYYFSSKEEIMDAIIERTIEQ	-1.81
HMGSKEQELVILNNILERQLQAINLQKSAAGPMVNLRNVHNTLTKLVEAAGLKNVETYFTDPVIGAAQ	-0.543
HMQNEIQQLAIDLIARAHKSGASDIHIVDTGTYTRIKFRVLGLLREDSQMEAETGRQMISTIYGILG	-0.19
HMDKGQRGWINLVSVPTARVIIDGYDTGHETPLYGYEVERGKRKVTLISLDGTYERTYEIRIEPGTTTRVR	-0.947
HMHIELNDTQKRILNFLSDDPNLSAVRLAEQLGISSRNVEKNIKKLKEYGILIRHGSPKNGYWEIVV	-0.2
HMLRISEEVWALVEKTLREDWSPEQVSGKLKASGISVSHERIYQHIYADKRVGGTLWTHLRR	-0.767
HMLVSVSNYLGQNVDTVKSDLEALGLVVKLKEQQTDRESENGAVLEQSIEGGSKVSAGTPITLTYGK	-0.00697
HMETLSVRERMTSIISLLNKHEDIEFSKLFNISEGRLGVVVTFLALLELVKESLVDVIQNQPMSKLYIGKK	-0.376
HMTNVDELIGKEAVVVKEIRPYTTGEVKLDGKVWRAMSESKQVYKVDEIVTVLRIEGVTMII	-0.142
HMKDSKSALQEYALERKMGLPVYEVVDRSGPDHAPQFVIAVSLGEWRLEAKGASKRQAEQQAASLMLEEI	-0.0445
HMVLVSNYGEVVRKARERKGLDHGSLAMKISEKKSIITSVESGNMKPNEKLIKKLENFLNINLM	-0.471
HMRRPTYPTVTTEAGMVVEDRSSGFVGDIVRWSFEGVTLRDRQQQLRHFTWKPGGFLINGTPVTLKRPE	0.0911
HMTDAYEVLDLNREASDEEIKKRYRELIREHHPDTLIAKGVPQEFVDLANDKMAAINAAYDRIEKDRGL	-0.0939
HMKEIIFRGIGEFILDYKSLVIEFLNKNNYANLSMDAPVDEVNKAVANNMLNEDFVTELLLFQRRVE	-2.16
HMLQEFTLELATAVVQEFRDQPGALINALHKLQETFGYVDEAAMPVLARLFNLSRAEVHGVASFYHDFRRS	-1.35
HMRKGDDRLRAQVDEYISKQGNNTFNYKQVAHAINATSPISQRAVALYLAELAFDGDLLETAPGRYKSPSR	0.191
HMAMTITKIEKTSQQKIYYFTDSGRVFKKMSDRSATIAVDDRVELEGGVLGSKFFVTANGSRVKVKEV	0.0344
HMNNIGENIKKYRTKQGLSQEDFAKKSGVKYTTLTKIESGVIKKPSVLVMAKIAKALGVNIEELI	≥ 0.43
HMNLSPADFSSVRNALGLSLSTVAKESGINRNYLSNFEKKKHFLEETAKVKLRDYYMSIDPDAFAAAL	-0.291
HMLSYIELTVDNTSKASYIMTDKMKINNFKIIGNNTIRVYENKVSPQDISRTLSMNNVSIEALGRKS	-0.253
HMDIPITFEQLPAKAQAFVKQYFKIEEIASVWRDDDIHDQDYKVYFNDGSEIEFYANGDWEEV	-0.468
HMTSRLLTPRQRYVFDTAMKEGFYDVPRRITLTELASVLDVAKSTLSAQLHRIESTVHHAYADDIRRRS	0.0724
HMKRITKKELKQAIVDVFADKPGQSFNYKQLATIIGIKDDPTRRMITDILYELVQEERIVELYRGKFKMEM	-0.335
HMGIMNFDTWLKSLPGTPTPTIAAKKSGLAAPTLLRHVERGYSTADNVIAIAKAYGVSPIDALVDNGML	-0.201

Sequence	soluble fraction (log2)
HMPEPLTARETEVLRLLSGGYSNREIAAAMFLAEGTIKNHVSAVLLKLGVRDRTRAVLRGLELGLIQ	-1.4
HMYQPLRDVIFETLRKAIVSGDIKPGERLMEVSLANQMGVSRTPVREAIRRLEAEGLVTMTPRKGTHVAE	-0.215
HMHITSFTIKQADQIVGTTPVREQAVGAAKARAQQTGTPVSVIAYLDTGEEREVIIHPDGTN	-0.328
HMSFTDLILKSANAIDEMGGIWENGKQILGEKAIAIHEEIVDNGLNPDKDGFYKLANGQMIQYG	-0.85
HMKPTSLLGIERYLGSGLIRGVGPSTAKQIVEHFGMETMEVLTEHPERLQEVHGMGRKRWRQIAESFQEQQ	-0.0617
HMEIELHNLALNIKEFRKKNKLSQAELAEKLGVARTTIGYYERAEVEPNIYTLVQLSKLMNRSIDSLLGL	-0.0684
HMGQAVTMLKAGRLLANAKGTGAPVRSLEPGMLLYPTGVKEGTMWEVEDEMGNKGWVNSTLMETA	-0.284
HMRLEYLVDVEEISIKEYLMLLGLSRRLARKIKLYGKMYINHQEAFNYHLVKKGDLLTIEFDE	-2.21
HMQGLIGEQKAIQIALSRVPGAKPEHVRELKLDYDDGMQLYEGEIFYNFREYEFEINAVTGEVVGWEI	-0.839
HMRGHASVEIKRIVYKYKLTDQELAKITGMKASDFPIYHDHLQLILPKRYWARVLDALQNYEKEHES	≥ 0.43
HMTSNEKARNAASAERRADIVAAARELYEEQGLSKTSVQDITNRMGVARSLFYHYFPDKEAVTSAVLDDYV	-0.102
HMEVQVGKQVRAFRETLGMTVQQFAERTGFSAALLAQIENRMVSPSLGTLVKIANTFGTTVSSFIG	-0.38
HMWSQEPEYRPLYNSMDGFDAGQVVEMLQQSRIDYKVEPNSGALLVRSEDLADARLRLASAGISP	-0.959
HMSKPVVWIVGDSTVSAFTDNYYYPRYGWGTQIDKYLDGTFEVKNIALSGRSSTSYTADKEYGELIAG	0.0502
HMKFGETLIDLRKRNGLTQEELAAKLYVTRQAVSRWERGEVTPGIDMLKLIANVLNEPVAHLLDW	-0.435
HMASEVEVPNVYGMPSSLAERELSAVGLLADYRSRTGTGQQPGTVVHVKPDAGTVVSRGSTVVLFIA	0.138
HMNEDYFTIAGYASLRGVNIDTSKANMLGRKATKLSREYGYDIGKVTDTRFGKVNSYHLDILKSIFEF	-0.646
HMDASSTGFLGKHVQIVGLVSQPHLNGRRGVASRFDSNRRRYLVRLDEIDGHAEVVAFRPDNLVLSNLL	-0.0982
HMKIPQFAVIKQYLEQQIKTAQWAPGRQIPTEQSLADTFSVSRMTARRAVQQLADAGLLERTQGSGTFVAD	-0.053
HMLKLEPYTINEINSLQELYDLGNVRALETLISIYKDKNQVYDTRFYVLDILSKYDNPLIQEALEESITN	-1.89
HMQLGSILAYKFPQFGGIDGAWQVRDDSNGTGPYIAFWDAKTIGRGMPTEDELTAWAQEYEA	-1.38
HMNIIATHTVPAIEQKIRLQEYAISIFPQINSRSALKKAIAKKLVLLDGERASTADWIQPGQKIELLEDK	-0.274
HMASQFSLIVTQADAGMRLDSLLAVSGAYPSRSAAVKQIEAGKVLVNGLARSKRSIVAPGDTIVYEEIP	-0.0502
HMDKMIFFKNKENNDDNQLVKIGALLIHAAKIDEDFSQEEENIIKQTLINFGAGNKNINEIIEKAKKME	0.33
HMRPEFVVALSGADLGKLHRLYELGEVLSREDDAEGVTHAVLRVPDKHEHAFHAEFPQARPM	-0.19
HMQNRIVNTTQGLAADKRGLLVADETGHTTRPGIFASGDVVNGARTVVEAVAHSKIVAESMHQYMQ	≥ 0.43

Sequence	soluble fraction (log2)
HMGVGIAEAMKHVADEDYGDLSSEFQRIFSAVDGGSTLGDAVRAQMRATSSAGLRRTLSVLAMSVE	-0.314
HMDRELVALVQKALSQLSEQQRRIVELHVMEGMKYLEIADLLQLSENTVRTHLKRAYKILRENH	-0.921
HMDFDQELFDKIVEATMDEARAAMDTDDKNVREERWNKLIEHWHELFLEDYPEMDKYLEEITYKFQKNPAT	-1.23
HMKKTIIVHVVGEVNTPGIVELNEGARIIDAINGAGGKTEEADMSKINLAYVIEDGSQIYVPSIYE	-1.08
HMVINVNEIIRRIKELKTFKTDRQVADFLGVSKATVSNWMARNSIDFPLLINKLDGVDLTWLLTGRGTPE	-0.121
HMTMVLPDAARDKLKAIGLSIEHVEPSPVKDIFTVISREGVSYVSKDGDYIFTGSLFHVKGKDVVNTTEQA	-0.275
HMSTMTGTVDTPGASLNVRTGAWGPIVGQLAHGSKVTIIGSSGDWFKISYNGATRYVHKNYVNTT	-0.0624
HMTVLDYNENVLSKVMNAAEINDSDKEAFIAFAKDYNSDDNLYLKKEELETAAGAWNARNVE	-0.552
HMALSLPDDMTIVRKDGSSLEVRLKSRTVTEIHFERISDSETFQFSIDQLDETTRELVEQYPVM	-0.407
HMEVEADEFQQLLRSGEYVQALDRARANQDIGLRQQQIVQIARHQAASGIQAGAMGSLASLYQF	-0.461
HMITGREMDVLEALWSSEKPLVASDIPKMKPSLSISSVQLALRNLVKKKLVEVADIVYSGTVLSRSYRP	-0.477
HMPQTDDSEPLGKYGRMRLAYLKNQRPVLYNQMLLNGTLWPHLQDVQKTAYEWLERTMTTLLDK	-0.581
HMRRPRGVFNLVPRGFKRFGFITPDGGGEDMFAHLENVRAGHVVEDRNAVEYGIGRGPDGRDQAVDIVPVP	-0.112
HMKQIEEIIARYTNENTPLMMILSDVQREYGYIPLDVQELISEKTGIPVAEIYGVVTFYSFFSL	-0.337
HMLDDESLHFFYKKDGWEYWMKTTTENNYPIQLRKKIGDEKVQEYWNGDKEKKKIGASYFGV	-0.6
HMQDRDKNIEEGRQLVLHEMDRLDLVDEPLHDVARQLNMKAVEDMFAAVGAGDLRLGQIIHQLLKQADTN	-1.11
HMNALTEAESKLLERMNKAGIHAEITTKKAAGILQRSENGARTVLNSLVKKGYLTVETNKAPYIYHLH	0.301
HMSYLELENLAEDIKATYDNLSTDLREVFRLSDIEGLSYEEISNKMNIPIGTVRSRLHRARETLLRIFNN	-1.22
HMRTRSDVKRAAIIQAAKDAFQEYGVNATSMDKLAEMASVSKRTVYNHFSAKEELVMHIVKE	0.174
HMLLSFYGTYGNVKLTGKELEDLQKEFPFDYQARIDRLSAYMESSGRKYHSHFATIRSWAQDDAKKN	0.173
HMGIMSEITHRVLRLLGLLESRSTWTGSDLAERLGVTQRTIRRDVIRLRELGYQVDSVQGLDGGYRMS	-0.0721
HMASRKTERINRLIDVLQHATSRVPASVLSKILGIGERSVRNYVSEVNEQGQFRIDSSSGGYRLVA	-0.0154
HMINLDYILELIFEKNNKTKDKTALIEEIRGVIRASVGNRAKESLIVDFINDTDLDTITDKASIIESFFEY	-2.64
HMGLGDLEVVDSIGKIRRDGQQMILAFGRHKGRDVQEVYNEDPRYINWLLSPKGIEDENGRGKVRDYLGIN	-0.678
